# Biological target: human CCR5 (human) (UniProt P51681)
# Test: cell-based or functional assay
# Chain of human CCR5 (human) (P51681 whole entry): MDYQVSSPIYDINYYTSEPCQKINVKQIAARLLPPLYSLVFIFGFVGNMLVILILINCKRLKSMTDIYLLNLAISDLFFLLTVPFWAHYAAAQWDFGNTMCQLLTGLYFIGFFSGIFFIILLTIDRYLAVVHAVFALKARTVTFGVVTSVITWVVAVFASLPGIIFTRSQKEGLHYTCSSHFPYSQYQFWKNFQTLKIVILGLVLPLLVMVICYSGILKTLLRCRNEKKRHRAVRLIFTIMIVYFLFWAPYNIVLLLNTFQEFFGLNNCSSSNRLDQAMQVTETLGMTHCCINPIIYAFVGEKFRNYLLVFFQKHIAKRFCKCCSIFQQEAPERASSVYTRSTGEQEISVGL
substance,measurement,value
AOP-RANTES (from UniProt P13501 24-91) (ligand),CCR5 receptor downmodulation on CHO cells expressing CCR5 (FACS) at 1 nM AOP-RANTES,50%
same,CCR5 receptor downmodulation on CHO cells expressing CCR5 (FACS) at 100 nM AOP-RANTES,90%

# From US20060078537A1
